Experimental data: publication PMC4147313

Key:
[1] = target: formyl-peptide receptors (FPRs) of CHO-K1 cells (Chinese hamster (endogenous in CHO-K1))
[2] = target: formyl-peptide receptor (FPR) (human (endogenous in SKOV-3)) (UniProt P21462)
[3] = target: formyl-peptide receptor (FPR) (human (endogenous in SKOV-3)) (UniProt P21462); remark: listed apart in the source
[4] = target: formyl-peptide receptors (FPRs) of CHO-K1 cells (Chinese hamster (endogenous in CHO-K1)); remark: listed apart in the source

Sequence of UniProt P21462 (P21462 whole entry): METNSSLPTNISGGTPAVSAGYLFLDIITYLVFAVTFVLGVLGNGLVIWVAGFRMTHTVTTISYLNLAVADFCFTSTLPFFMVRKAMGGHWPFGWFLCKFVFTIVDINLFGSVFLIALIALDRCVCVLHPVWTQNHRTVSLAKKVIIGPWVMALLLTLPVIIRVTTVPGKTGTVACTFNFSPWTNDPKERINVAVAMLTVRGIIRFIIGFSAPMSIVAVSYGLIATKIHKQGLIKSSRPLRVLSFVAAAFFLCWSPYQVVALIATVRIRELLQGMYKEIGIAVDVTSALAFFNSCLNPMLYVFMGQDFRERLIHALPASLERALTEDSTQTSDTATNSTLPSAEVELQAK

With “truncated uPAR lacking the D1 domain and exposing the 84-95 sequence (uPARD2D3) on CHO-K1 cells (domain or fragment)” the reduction by 10 nM RERF peptide of the Cell Index of CHO-K1/D2D3 cells invading matrigel toward serum (xCELLigence, after 18 hrs) (% reduction of Cell Index) [1] was 83.

Work on “urokinase receptor (uPAR) (from UniProt Q03405 23-305)” yielded a reduction of migration of SKOV-3 cells toward 10% FBS by RERF peptide, 10 fM to 10 pM (35% at 10 fM, 60% at 10 pM) (% reduction of cell migration) [2] of 60 and a reduction by 10 nM RERF peptide of the Cell Index of SKOV-3 cells invading matrigel toward serum (xCELLigence, 18 hrs); anti-uPAR84-95 polyclonal antibody reduced it by 50% (% reduction of Cell Index) [3] of 86.

Molecule “wild type, full length uPAR (D1D2D3) on CHO-K1 cells (from UniProt Q03405 23-305) (receptor)” has a reduction by 10 nM RERF peptide of the Cell Index of CHO-K1/D1D2D3 cells invading matrigel toward serum (xCELLigence, after 18 hrs) (% reduction of Cell Index) [1] of 75.

SRSRY [SRSRY peptide (uPAR 88-92, Ser-Arg-Ser-Arg-Tyr)] was tested, and the migration of wild type CHO-K1 cells toward 10 nM SRSRY (Boyden chamber, 4 hrs, 37°C), percent of basal (% of the basal cell migration) [4] was 177.
